Values quoted from earlier work in publication PMC6815250.

Biological target: RgpB pro-fragment pro-fragment (Porphyromonas gingivalis) (UniProt P95493)

RgpB, sequence (P95493 230-736): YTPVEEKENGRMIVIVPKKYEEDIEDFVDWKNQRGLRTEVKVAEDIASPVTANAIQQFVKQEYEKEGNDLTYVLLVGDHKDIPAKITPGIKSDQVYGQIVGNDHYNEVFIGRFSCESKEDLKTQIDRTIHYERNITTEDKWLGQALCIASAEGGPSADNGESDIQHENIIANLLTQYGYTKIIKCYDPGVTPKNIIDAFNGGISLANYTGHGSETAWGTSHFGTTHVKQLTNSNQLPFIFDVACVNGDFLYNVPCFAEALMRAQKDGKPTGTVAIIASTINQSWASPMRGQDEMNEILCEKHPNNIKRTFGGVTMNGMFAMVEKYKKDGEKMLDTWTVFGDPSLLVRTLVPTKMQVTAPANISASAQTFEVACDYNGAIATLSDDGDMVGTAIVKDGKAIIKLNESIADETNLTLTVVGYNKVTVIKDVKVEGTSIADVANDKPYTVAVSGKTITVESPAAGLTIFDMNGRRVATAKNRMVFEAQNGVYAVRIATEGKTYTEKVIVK

## RgpB (from UniProt P95493)
  Ki: 6.3 nM
